# Experimental data published in the DeepSol protein solubility set.
# Assay: soluble on expression in E. coli; label from the status in PepcDB or PDB records
row,Sequence,soluble on expression in E. coli
1,MGSDKIHHHHHHMSGLCAKCVDGCTGGCETWLASFRGREVLYPGPFGDITAGAVKDYPVDYSHLNILGYARGAEGLPEGVEPGPDTAIFTNVDTTTEYGWDIKVKMKVPIFTGALGSTEIARKNWDHIAVGAAISGITVVCGENVAGVDPDLELDSNGKVKKSPELDRRIEIYKRYHDGEYGEILIQMNVEDTRLGVAEYVINKHGIETIELKWGQGAKSIGGEIKVRSLERALELKRRGYIVLPDPELPEVQRAFKEGEIKEFERHSRLGFVSKESFLKEVERLRKLGFKRITLKTGAYSAVELAMALRYGAEAKVDLITVDGAPGGTGMSPWPMMNEWGIPTFYLEALTYQFAEKLSRRGIRVPDIAIAGGFSTEDGVLKAIAMGSPYVKAVCMGRALMIPAMVGKNIGEWLKSGNLPKTVSKYGTTVEEIFVTYEELRSRFGEEEVKKLPLGAIGVYTFVQKFKTGLQQLMAGARKFRLSALSRKDLIALTKDAAEISGIPYVMESYRDEAERILEE,not soluble
2,MTLDYHQPTTTNTTLPDDIHMKDPEEEEFEEYEDELLEEEEEFDEELEELENSDSASSLVSAGSPHGSSSSNGSHGSSPPLQVQSPSQGSGSSGSPTGQPEKRHICTVCGKGFSYFSILESHKRSHTGEKPYNCHFCQKTFAQKATLQVHERTHTGERPYKCRYCEKTFAQYGTKTVHEKSAHLGIRNYKCPKCDKLLSSPSALYTHKKTHGDKTFRCDFCPKTFALKNYLKLHVKQVHEQNERKHVCVYCNKGFAYAGSLQVHVRTHTGERPYVCKFCPKAFASQGNLQSHERTHTGERPYSCQFCQRTFIQKSQLTAHESTHLTQKHSVNPDSTTADILPVAGSVTDHQMVGNYECTFCNKKYPYASSLYIHMRKHTEKSAYSCDGCGKPYSQKISLNIHQDQCEAFKNRLKTTDSQFSHNCDGCGKSFVQRIALQIHVDSCEPHKNLARLKLSQQQNQNQNSDSESDTEMKICPLPNPPLTLAPTHQQIPPPVNIYAQQPPPNPLGSILGNTSLTPQTLNFGLPSLSSASFSSLNAHAPFTPVELPNSADFGPLTASKPHAVPFHPSEMCLSAFRKVPESSSISGLGSLSTSILSTQLLLQLQHTPDFNYLLNQNLLSSLAGLSGLSATLGPQLQATTPTSANQQPFLMAAPSAVQPLV,not soluble
3,SSWAIHYIGKSVEQLTGYSKMDFITRKLTWSDLICPEDIPALNKVVQKATKNRTPYQVEYRIKKADGSTVFIQEQAHPVNDDKGNLAYVDGVFLDV,not soluble
4,MAEHEQVNWPYVNTKLKRDPAVEAQIEKLLAKMTIEQKVAQMIQPEIGYLTVEQMRKYGFGSYLNGGNTAPYGNKRADQATWLKYADEMYLAAMDSTLDGIAIPTVWGTDAMHGHSNVYGATLFPHNIGLGAARDTDLIKRIGQATAKEVAATGIEWSFAPTVAVVRDDRWGRTYESYSEDPDLVKRYAGEMVTGIQGDVGADFLKGSNRIATAKHFVGDGGTERGVDRGNTLIDEKGLRDIHSAGYFSAINQGVQSVMASFNSWNGKRVHGDKHLLTDVLKNQLGFDGFVVSDWNAHKFVEGCDLEQCAQAINAGVDVIMVPEHFEAFYHNTVKQVKAGVIAESRINDAVRRFLRAKIRWGVFTKSKPSARPESQHPQWLGAAEHRTLAREAVRKSLVLLKNNESILPIKASSRILVAGKGANAINMQAGGWSVSWQGTDNTNSDFPNATSIFSGLQSQVTKAGGKITLSESGEYTSKPDVAIVVIGEEPYAEWFGDIELLEFQHETKHALALLKQLKADNIPVVTVFLSGRPLWVNKELNASDAFVAAWLPGSEGEGVADVLLTNKQGKTQFDFTGKLSFSWPKYDDQFTLNLNDADYDPLFAYGYGLTYQDNINVPVLSEKTSPKKTVNSDSHPLFVRSLAKNMTWQLADTSTQKVLASGASATSGDKQSLLMQSVNLSYQEDGRGFNWRAQAALSLSYLEPTPLDSKFSTGYLELKMRIDKAPEQGANLQVMCSESNCLRDIDFSSFSQLMADKSWHTLAIPLHCDDSDQAEQPITDALRITSQNLSLAIADVALTIKPSDDSISLTCAKLEHHHHHH,soluble
5,MSCTGFWRKLASGEECGAAARLLGAVLAIPAALYGLVVRLRALAYARGLSTVRHLDRPVISVGNLTVGGTGKTPMVAYLARRLMARGKRVAVISRGYGGSLEGETRIVSDGRTIVLSAAEAGDEPVHLATSVPGLMTVIGTDRYTAGLLALEQLDPDVFILDDGYQHLRLHRDLNILLMDCNRPLGNGRTLPAGLLREPQTAVRRADLVVYTRCTGGKAPAVHGMIPSCRAGHALTGAALLPDGEVQPLAALRGLRGVACAGIAEPEGFFDALRREGLDIVAAIPFADHASYGEREVSTLREAAAGADYLITTGKDGVKLSAHLARLLPVYATVLEMRPLDPAPLEAALDKVLTHISSCKSLEHHHHHHTHISSCKSLEHHHHHHTHISSCKSLEHHHHHHTHISSCKSLEHHHHHHTHISSCKSLEHHHHHHTHISSCKSLEHHHHHHTHISSCKSLEHHHHHH,not soluble
6,MTLEKKEYGAPGFWPGSMIGRVHAFETPAPLTRAQLDRLRDEFFETRTEGHLEIWTAIRAASHAQEAGDDELAYAIITAVGILPAEVGPAGEGLGERIPFAEQPLDRLLGMICGCCFPAFTRYRTLERVYDQRGFLYETPKECIATPSNVLPDESTEASAR,not soluble
7,MLEKTLLKIALDLSLSLPKKAHYQRLMLAVNEVMPCDAVALLVLQDDYLVPVAVDGLSPEVLGMRFSPEEHPRLKAILSSRKPIRFDADSSYPDPYDGLLSIDPKRVLDVHDCMGCCLYVEENLVGVLTLDALQVGAFSNVDDITVATLAALAAATIRNANCIAVLEKRNEKALCLTNELVKDAHKAKGDD,not soluble
8,MKQIFIGIIRFYQKFISPMTPPTCRFYPTCSHYGLEAFQKHGALKGFWLTCKRILKCHPFHPGGFDPVPDKKDDKVNSLEHHHHHH,not soluble
9,SLRILPQEPVIREEQNWLTILKNAISDPKLLLKALNLPEDDFEQSIAARKLFSLRVPQPFIDKIEKGNPQDPLFLQVMCSDLEFVQAEGFSTDPLEEKNANAVPNILHKYRNRLLFMAKGGCAVNCRYCFRRHFPYDENPGNKKSWQLALDYIAAHSEIEEVIFSGGDPLMAKDHELAWLIKHLENIPHLQRLRIHTRLPVVIPQRITDEFCTLLAETRLQTVMVTHINHPNEIDQIFAHAMQKLNAVNVTLLNQSVLLKGVNDDAQILKILSDKLFQTGILPYYLHLLDKVQGASHFLISDIEAMQIYKTLQSLTSGYLVPKLAREIAGEPNKTLYAE,soluble
10,MTENILRKSDEEIQKEITARVKALESMLIEQGILTTSMIDRMAEIYENEVGPHLGAKVVVKAWTDPEFKKRLLADGTEACKELGIGGLQGEDMMWVENTDEVHHVVVCTLCSCYPWPVLGLPPNWFKEPQYRSRVVREPRQLLKEEFGFEVPPSKEIKVWDSSSEMRFVVLPQRPAGTDGWSEEELATLVTRESMIGVEPAKAV,soluble
11,MDGNDLIRLEMKRLGPMAVEKGDLLLLSGDNNADASMWDPNSNGPKSYQSQVAGLRLAAGGVFHVLTLKSAGEATLSIHFVFPSRTDPGRQVQMWVRRVGRSFQGAGSGYVLMNMRHVVNVQGKTIHTQTGNTVCLDDITDDCYLDREGRFVFVKSPVGSPPSMIAVGYTNSDGTQDLAELILTESACPEMLHVFSTLEFPD,soluble
12,KVTKLINDDPTLTHDQKVDQINKVEQAKLDAIKSVDDAQTADAINDALGKGIENINNQYQHGDGVDVRKATAKGDL,not soluble
13,MRIVVISLFLFSGVFGRASREAEKKQDTVACGELRDEYVRVCTGANTKRREQKDKDFCNAFENICFSIPEGEPDKAKDAEVTGPRTAAISPESAAAVRGETTGSAHKKTNFARFCKEFKNQYLYVCPDPFRFGQKAIVFCPVYSEKCHVPLPDKPVIPQRKSHRKRGPGGAVNQLCRSYQGFAMNYCNNPILTAQSQYRTACDKYWRFCGKFHQQG,not soluble
14,MTHPVAVKACLFDMDGLLINTEDIYTETLNETLAEFGKGPLTWDVKIKLQGLPGPKQEKG,soluble
15,MTFFFDDRDQAVPYTATADDVAPTGQQIWQELQSGKWGEIAPFTVTPEMLEAAREARRQEIEAWRTEQEAKPFTFEWNGRIWNAGPDSLGRLSPVVMLAKSVTAQTHMAWSDADNQQVKLSMPELEELAESQKTALLTEAESVIRQPGRAVRLNRETDESGEARGRASVFPESVRSVVYAM,not soluble
16,MPKLSIIIPAYNNAHLLPETLDSIFSQDCEPFELIVVDDGSTDNTRDVVEGYGRGIVYLWQENSGGCSKPRNVGIRHATGEYIAMFDSDDIMKPGKVRSQMDFLDRNPDVDFVFTDFCDFRGAEVLASHITTCPIFNSLPKQKVGEDAYVISSTAAYETLLVENFIGGSAMMFRKSLFNEAGPFDETLEVSEDIDFTLRVARTHALGFINRIGHHRRLHDGNMTSKAEKILTRSLRVFGGHLSAPKSSKAQQRLIDKVAGLHGALAYHYRENARYGEALAEYRASLSLRPACLGTYKAMAKLAVMALTSGGKLEHHHHHH,soluble
17,MLSKISESLANLSGAERKVAECALAEPKWFVHAAVAEIAERASVSQPTVIRFCRSLGYKGLPEFKLALSASIGHEGMPYVHEELNADDDMASVVEKVLGNAAASL,not soluble
18,MSEIALEAWGEHEALLLKPPRSPLSIPPPKPRTAVLFPRREGFYTELGGYLPEVRLRFETYGTLSRRRDNAVLVFHALTGSAHLAGTYDEETFRSLSPLEQAFGREGWWDSLVGPGRILDPALYYVVSANHLGSCYGSTGPLSLDPRTGRPYGRDFPPLTIRDLARAQARLLDHLGVEKAIVIGGSLGGMVALEFALMYPERVKKLVVLAAPARHGPWARAFNHLSRQAILQDPEYQKGNPAPKGMALARGIAMMSYRAPEGFEARWGAEPELGETYLDYQGEKFLRRFHAESYLVLSRAMDTHDVGRGRGGVEEALKRLRAIPSLFVGIDTDLLYPAWEVRQAAKAAGARYREIKSPHGHDAFLIETDQVEEILDAFLP,soluble
19,MGSDKIHHHHHHMAQDIRVFKSKRDIETAVIQLILEEDFSKLTIQQICQKALVSRSTFYSHYLDKYDVVEQLVAKTITQLETIFSQKYQSQVSPENLKDYLADIYQFYQENARLLKALLKTPLTGTGNFEEAFSKLCQTYINHLAATTKDNDHLPPQLLAEIFTANVVTLMKWIIEHGPSENVTHFADWLHDLFLQYLQE,not soluble
20,MSLRPSLDAWTKMECVMVKIKTSDGLEGWGEAFGHVMAPGTEAVINQILAPMLVGKDSVAINHRVAEMERPLHGLGRSGPVMYGLSAIDTALWDLAAQRANLPLFKFLGGDSGVLTKYASLMRYGGDTDAVAQNVERARSYGFRTIKLHETTIPAFRAARNAVDFDDKICLDVNCPWTVSEARDVAQEILEDGFHWLEEPIWPPEDFEGLAEVRLEGVPISAGENITTLHEFKLALETEAVDNLQPSVTKCGGVSMMRKIFSLSEVYPVTVIPHCFYWGPGYHATAHLAASCLNSTPLETAFITFAVEPHNLFNSHSDKVTLDDTPGLGFNANWEALDQFIISTNEVTEGHHHHHH,soluble
21,MGSDKIHHHHHHMEQVDMGPAQAPPLFSGQLDARTRAASVDLHGCNVDYWVYEPVSVTAETRTMLVVHGFRGDHHGLLRVADQLPDMRLIMPDLPGFGSSDAFPDGGHSVRRYGQFISDFMAALGLGPDTVLLGHSFGSIVASHFAAANPGAVFPLILINPIAAPALEGPKGVMTKLAVIYYEASARLPRALGLYLLRSRLIVRVMSMAMAKTRDKQLLQFIHGQHNAYFSAFANRDSLLESFKASVGSNVSEVAPDLSLPVLLIAGEKDEIAMLPDQHKLQALLPDGTLEVIPGVGHLIHYETPQPAAGFIRRFLKDHPA,not soluble
22,EGKKIVFISDIHHGPYFERERVADLVRKVNELEPDIIILGGDYVSGDVGYIGACFEELSRLKADMGIFGVTGNHDEWTDYNLTVKCMENAGITVLSNRAEWLEIGDDKIKIAGVDWSTDWYFNSEPYVDPLIKDAEENDFVILVSHTPDLAEELTTDKVDLVLSGHTHGGQITFFGLWAPYVPSFYGQKYRTGIVKTDKTMALVSNGVGNTFLPIRFF,not soluble
